The values below are quoted from earlier work in publication PMC8223436.

This series has as its target HER2 domain IV (Homo sapiens) (UniProt P04626).

By Kd is commonly meant the free concentration of one partner at which half of the binding sites on the other are occupied at equilibrium, for simple one-to-one binding. For the substance Trastuzumab, the Kd is 0.56 nM.
